The assay has as its target hypoxia-inducible factor 2α (HIF-2α), wild type (UniProt Q99814). In words: co-IP.

In PMC5727443 one finds PHD2 bound to HIF-2α with Tet1 co-expressed, fold of without Tet1 and pVHL bound to HIF-2α with Tet1 over-expressed, fold of without Tet1 data, which are given here for one substance.

UniProt Q99814, sequence (Q99814 whole entry): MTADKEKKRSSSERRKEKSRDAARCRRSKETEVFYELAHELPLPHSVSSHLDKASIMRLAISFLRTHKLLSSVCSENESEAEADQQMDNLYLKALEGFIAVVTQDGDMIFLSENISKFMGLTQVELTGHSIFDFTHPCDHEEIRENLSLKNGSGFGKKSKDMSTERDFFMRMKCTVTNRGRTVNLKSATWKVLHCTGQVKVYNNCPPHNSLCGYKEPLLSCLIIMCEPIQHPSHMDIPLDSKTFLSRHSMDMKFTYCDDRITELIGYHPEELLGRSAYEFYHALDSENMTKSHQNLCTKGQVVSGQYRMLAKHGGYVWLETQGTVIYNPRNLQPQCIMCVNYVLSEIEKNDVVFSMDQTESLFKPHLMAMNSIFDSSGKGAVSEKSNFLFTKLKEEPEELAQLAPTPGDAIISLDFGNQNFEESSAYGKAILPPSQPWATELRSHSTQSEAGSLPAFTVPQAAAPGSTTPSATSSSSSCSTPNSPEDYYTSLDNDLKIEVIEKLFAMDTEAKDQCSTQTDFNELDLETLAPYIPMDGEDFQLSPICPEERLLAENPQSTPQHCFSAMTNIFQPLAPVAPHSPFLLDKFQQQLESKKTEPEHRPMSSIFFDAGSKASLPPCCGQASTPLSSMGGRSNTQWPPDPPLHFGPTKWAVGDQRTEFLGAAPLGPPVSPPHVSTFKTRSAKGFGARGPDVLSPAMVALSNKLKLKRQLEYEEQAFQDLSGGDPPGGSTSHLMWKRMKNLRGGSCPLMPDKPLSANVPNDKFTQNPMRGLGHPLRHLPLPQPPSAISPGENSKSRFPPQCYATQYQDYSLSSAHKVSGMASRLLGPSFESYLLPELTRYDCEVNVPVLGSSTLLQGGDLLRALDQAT

Consider mouse Tet1 (wild type, whole) (enzyme), for which the PHD2 bound to HIF-2α with Tet1 co-expressed, fold of without Tet1 was found to be 0.47 fold and the pVHL bound to HIF-2α with Tet1 over-expressed, fold of without Tet1 was found to be 0.7 fold.
